The record followed here is patent publication US20260167699A1 (Chugai, published 2026).

B1: GpH7-A5/GpH7-B3 variant K326_12R/GpL16-k0 (antibody, human IgG1, kappa)
heavy 1: not shown
heavy 2: not shown
light: DIVMTQSPLSLPVTPGEPASISCQASESLVHSNRNTYLHWYLQKPGQSPQLLIYKVSNRFSGVPDRFSGSGSGTDFTLKISRVEAEDVGVYYCSQNTHVPPTFGQGTKVEIERTVAAPSVFIFPPSDEQLKSGTASVVCLLNNFYPREAKVQWKVDNALQSGNSQESVTEQDSKDSTYSLSSTLTLSKADYEKHKVYACEVTHQGLSSPVTKSFNRGEC
notes: copies: 1 + 1 + 2
B2: GpH7-A5/GpH7-B3 variant K326_18N/GpL16-k0 (antibody, human IgG1, kappa)
heavy 1: not shown
heavy 2: not shown
light: B1 light
notes: copies: 1 + 1 + 2
B3: GpH7-A5/GpH7-B3 variant K334_09D/GpL16-k0 (antibody, human IgG1, kappa)
heavy 1: not shown
heavy 2: not shown
light: B1 light
notes: copies: 1 + 1 + 2
B4: GpH7-A5/GpH7-B3 variant K334_07I/GpL16-k0 (antibody, human IgG1, kappa)
heavy 1: not shown
heavy 2: not shown
light: B1 light
notes: copies: 1 + 1 + 2
B5: GpH7-A5/GpH7-B3 variant K334_13S/GpL16-k0 (antibody, human IgG1, kappa)
heavy 1: not shown
heavy 2: not shown
light: B1 light
notes: copies: 1 + 1 + 2
B6: GpH7-A5/GpH7-B3 variant K334_06M/GpL16-k0 (antibody, human IgG1, kappa)
heavy 1: not shown
heavy 2: not shown
light: B1 light
notes: copies: 1 + 1 + 2
B7: GpH7-A5/GpH7-B3 variant K334_01G/GpL16-k0 (antibody, human IgG1, kappa)
heavy 1: not shown
heavy 2: not shown
light: B1 light
notes: copies: 1 + 1 + 2
B8: GpH7-A5/GpH7-B3 variant K326_19Q/GpL16-k0 (antibody, human IgG1, kappa)
heavy 1: not shown
heavy 2: not shown
light: B1 light
notes: copies: 1 + 1 + 2
B9: GpH7-A5/GpH7-B3 variant K334_03V/GpL16-k0 (antibody, human IgG1, kappa)
heavy 1: not shown
heavy 2: not shown
light: B1 light
notes: copies: 1 + 1 + 2
B10: GpH7-A5/GpH7-B3 variant K334_08L/GpL16-k0 (antibody, human IgG1, kappa)
heavy 1: not shown
heavy 2: not shown
light: B1 light
notes: copies: 1 + 1 + 2
B11: GpH7-A5/GpH7-B3 variant K326_15Y/GpL16-k0 (antibody, human IgG1, kappa)
heavy 1: not shown
heavy 2: not shown
light: B1 light
notes: copies: 1 + 1 + 2
B12: GpH7-A5/GpH7-B3 variant K334_02A/GpL16-k0 (antibody, human IgG1, kappa)
heavy 1: not shown
heavy 2: not shown
light: B1 light
notes: copies: 1 + 1 + 2
B13: GpH7-A5/GpH7-B3 variant K326_16H/GpL16-k0 (antibody, human IgG1, kappa)
heavy 1: not shown
heavy 2: not shown
light: B1 light
notes: copies: 1 + 1 + 2
B14: GpH7-A5/GpH7-B3 variant K326_13S/GpL16-k0 (antibody, human IgG1, kappa)
heavy 1: not shown
heavy 2: not shown
light: B1 light
notes: copies: 1 + 1 + 2
B15: GpH7-A5/GpH7-B3 variant K334_04F/GpL16-k0 (antibody, human IgG1, kappa)
heavy 1: not shown
heavy 2: not shown
light: B1 light
notes: copies: 1 + 1 + 2
B16: GpH7-A5/GpH7-B3 variant K334_10E/GpL16-k0 (antibody, human IgG1, kappa)
heavy 1: not shown
heavy 2: not shown
light: B1 light
notes: copies: 1 + 1 + 2
B17: GpH7-A5/GpH7-B3 variant K334_12R/GpL16-k0 (antibody, human IgG1, kappa)
heavy 1: not shown
heavy 2: not shown
light: B1 light
notes: copies: 1 + 1 + 2
B18: GpH7-A5/GpH7-B3 variant K334_05P/GpL16-k0 (antibody, human IgG1, kappa)
heavy 1: not shown
heavy 2: not shown
light: B1 light
notes: copies: 1 + 1 + 2
B19: GpH7-A5/GpH7-B3 variant K334_14T/GpL16-k0 (antibody, human IgG1, kappa)
heavy 1: not shown
heavy 2: not shown
light: B1 light
notes: copies: 1 + 1 + 2
B20: GpH7-A5/GpH7-B3 variant K326_14T/GpL16-k0 (antibody, human IgG1, kappa)
heavy 1: not shown
heavy 2: not shown
light: B1 light
notes: copies: 1 + 1 + 2
B21: GpH7-A5/GpH7-B3 variant K326_20W/GpL16-k0 (antibody, human IgG1, kappa)
heavy 1: not shown
heavy 2: not shown
light: B1 light
notes: copies: 1 + 1 + 2

T1 sequence (P08637 other isoform, or with tags, fused parts or gaps): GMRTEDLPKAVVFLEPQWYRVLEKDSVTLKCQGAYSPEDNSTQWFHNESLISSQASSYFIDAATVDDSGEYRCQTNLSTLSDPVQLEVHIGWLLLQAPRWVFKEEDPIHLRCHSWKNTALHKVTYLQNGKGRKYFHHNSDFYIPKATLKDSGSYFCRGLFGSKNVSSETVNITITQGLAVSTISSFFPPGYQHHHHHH

The experiment has as its target T1, FcγRIIIa (human, UniProt P08637 17-208).
T1 construct: extracellular domain; also called 3a; FcγRIIIa extracellular domain
The experiment can be described thus: SPR (Biacore).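 Further: antibody variants captured on an SPR sensor chip, with FcγRIIIa passed over as analyte in HBS-EP+ buffer at 25 °C.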
Protocol: The antibody of interest was analyzed for its interaction with FcγR using a BiaCore™ T100, BiaCore™ A100, or BiaCore™ 4000 surface plasmon resonance system (GE Healthcare Japan Corp.). The running buffer used was HBS-EP+ (GE Healthcare Japan Corp.). The assay temperature was set to 25° C. The sensor chips used were: a chip prepared by immobilizing antigenic peptides onto Series S Sensor Chip CM5 (GE Healthcare Japan Corp.) by the amine coupling method; a chip prepared by immobilizing antigenic peptides biotinylated in advance onto Series S Sensor Chip SA (certified) (GE Healthcare Japan Corp.) through their interaction; a chip prepared by immobilizing protein L (ACTIGEN, BioVision, Inc.) onto Series S Sensor Chip CM5 (GE Healthcare Japan Corp.); and a chip prepared by immobilizing protein A/G (Thermo Fisher Scientific K.K.) onto Series S Sensor Chip CM5 (GE Healthcare Japan Corp.). The antibody of interest was captured onto any of these chips and allowed to interact with FcγR diluted with a running buffer. The antibody captured on the chip was washed off through the reaction of 10 mM glycine-HCl (pH 1.5) to regenerate the chip, which was repetitively used.
As to B1, the “He/Con 3a” value was 101 % of GpH7-A5/GpH7-B3/GpL16-k0.

Consider B2, for which the “He/Con 3a” value was 134 % of GpH7-A5/GpH7-B3/GpL16-k0.

With B3, the “He/Con 3a” value is 164 % of GpH7-A5/GpH7-B3/GpL16-k0.

On to B4, for which the “He/Con 3a” value was 156 % of GpH7-A5/GpH7-B3/GpL16-k0.

Take B5: the “He/Con 3a” value is 150 % of GpH7-A5/GpH7-B3/GpL16-k0.

Take B6: the “He/Con 3a” value is 149 % of GpH7-A5/GpH7-B3/GpL16-k0.

For B7, the “He/Con 3a” value was 125 % of GpH7-A5/GpH7-B3/GpL16-k0.

With B8, the “He/Con 3a” value was 117 % of GpH7-A5/GpH7-B3/GpL16-k0.

As to B9, the “He/Con 3a” value is 154 % of GpH7-A5/GpH7-B3/GpL16-k0.

Take B10: the “He/Con 3a” value is 148 % of GpH7-A5/GpH7-B3/GpL16-k0.

Take B11: the “He/Con 3a” value is 124 % of GpH7-A5/GpH7-B3/GpL16-k0.

As to B12, the “He/Con 3a” value is 152 % of GpH7-A5/GpH7-B3/GpL16-k0.

As to B13, the “He/Con 3a” value was 106 % of GpH7-A5/GpH7-B3/GpL16-k0.

Take B14: the “He/Con 3a” value is 118 % of GpH7-A5/GpH7-B3/GpL16-k0.

Regarding B15, the “He/Con 3a” value is 152 % of GpH7-A5/GpH7-B3/GpL16-k0.

As for B16, the “He/Con 3a” value is 186 % of GpH7-A5/GpH7-B3/GpL16-k0.

Consider B17, for which the “He/Con 3a” value is 93.5 % of GpH7-A5/GpH7-B3/GpL16-k0.

Take B18: the “He/Con 3a” value was 138 % of GpH7-A5/GpH7-B3/GpL16-k0.

Turning to B19, the “He/Con 3a” value is 146 % of GpH7-A5/GpH7-B3/GpL16-k0.

As to B20, the “He/Con 3a” value is 140 % of GpH7-A5/GpH7-B3/GpL16-k0.

As to B21, the “He/Con 3a” value was 93.7 % of GpH7-A5/GpH7-B3/GpL16-k0.
